Data from the supplement of paper PMC9170038.

Test system: MS2 coat protein
Assay: apparent KD of MS2 coat protein; designed switch direction (-1 OFF switch, 1 ON switch): -1; higher = weaker reporter binding
Procedure, shortened: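 Designed RNA switches with common flanks were transcribed on Illumina chips by stalled E. coli RNA polymerase and titrated with SNAP-549-labelled MS2 coat protein, from 0.7 or 1.5 nM doubling to 3 µM, in Tris-HCl pH 7.5 buffer with KCl, MgCl2, BSA, DTT, tRNA and Tween-20. Steps lasted 0.8–1.5 h (lowest) to 10–20 min (highest). Titrations ran without input, with 200 uM small-molecule ligand, or with an oligonucleotide input. Normalised cluster fluorescence was curve-fitted, and apparent KD is the per-design median over clusters.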

[1] = input ligand: microRNA oligo, concentration not stated
[2] = Eterna round: R95, input ligand: microRNA oligo, concentration not stated
[3] = Eterna round: R95, input ligand: FMN 200 uM
[4] = Eterna round: R95, input ligand: none

## UGUUGUUACGCAGGAUAUGUAUGAGGAUCACCCAUUAAUAAAUUUUAACCACGAGGAUCACCCGUGUAGAAGGGCGGGUUAACA [pwkr exNG2 2xF5 1xFMN.13] (Eterna round: R96, puzzle: Exclusion NG 2)
Input ligand: FMN 200 uM
  apparent KD of MS2 coat protein: 96.3 nM
[1]
  apparent KD of MS2 coat protein: 65 nM
Input ligand: none
  apparent KD of MS2 coat protein: 105 nM

## UUAUUAAGUGUGAGGAUAUGCUGGUCCUUGGAUCAGCAGAAGGCACAUGAGGAUCACCCAUGUACAAUAUAUUA [Mat - Exclusion 4 - JL Mod - D30] (puzzle: Brourd's mod of Exclusion 4)
[2]
  apparent KD of MS2 coat protein: 38.7 nM

## GUCAGCUCGUGAGGAUAUACAUGCGUGCUUCGGCACGUAUGAUAGAUCACAUGAGGAUCACCCAUGUAGAAGGCACGAGCUGAC [ENG2/4-A1] (Eterna round: R96, puzzle: Exclusion NG 2)
Input ligand: FMN 200 uM
  apparent KD of MS2 coat protein: 18.8 nM
[1]
  apparent KD of MS2 coat protein: 11.1 nM
Input ligand: none
  apparent KD of MS2 coat protein: 12.9 nM

## AAGUACCGUCACGAUAGUGAUGGUACAACAAGCAUGUAAACAUGAGGAUCACCCAUGUCCUCAAAUGCUCGUCUUAU [Sensor 3 - 65] (puzzle: Sensor v3, turn-off variant 2)
[3]
  apparent KD of MS2 coat protein: 556 nM
[2]
  apparent KD of MS2 coat protein: 1090 nM
[4]
  apparent KD of MS2 coat protein: 689 nM

## AUAAUGUGAGGAUAUCAGUCGACUAGCGAUAGCUAGUCGACUGAGAAGGCACAUGAGGAUCACCCAUGUGUUUC [E4/15-A4] (Eterna round: R97, puzzle: Exclusion 4)
Input ligand: FMN 200 uM
  apparent KD of MS2 coat protein: 44.4 nM
Input ligand: none
  apparent KD of MS2 coat protein: 16.8 nM

## GAGAAACAUGAGGAUCACCCAUGUGAGGAUAUGCGUACGUUGUCCGUAGGCGACGUGCGCAGAAGGCGCAAAAG [Mat - Mod of JL D87] (puzzle: Exclusion 1)
[3]
  apparent KD of MS2 coat protein: 59 nM
[2]
  apparent KD of MS2 coat protein: 53.5 nM
[4]
  apparent KD of MS2 coat protein: 96 nM

## CCGCAUGCUGUCAGGAUAUCGUAGAUAAUAAUAUGCGAGAAGGGACAUGAGGAUCACCCAUGUAAGAGGCGGCC [Design for Riboswitch] (puzzle: Brourd's mod of Exclusion 4)
[2]
  apparent KD of MS2 coat protein: 24.4 nM

## GAGCUAUGAGGAUAUGCAUAUAUACGGAUUCGUGUAGUACUACAUGAGGAUCACCCAUGUAGAAGGCGUGGCUG [JL-ex2-2.03 mat747 mod] (puzzle: Exclusion 2)
[2]
  apparent KD of MS2 coat protein: 13.2 nM

## ACAUGAGGAUCACCCAUGUAAUGAAGGGUACUAUACUAAACGUAGGAUAUCGAUGUAAGAUUGAACGAGAAGGACGAUUGCCUU [JR_ExcNG3_Sub050] (Eterna round: R96, puzzle: Exclusion NG 3)
Input ligand: FMN 200 uM
  apparent KD of MS2 coat protein: 55.9 nM
[1]
  apparent KD of MS2 coat protein: 42 nM
Input ligand: none
  apparent KD of MS2 coat protein: 72.8 nM

## GGUACUAACACGAAAGUGUUAGUACUAUAAGCUUGUGUUACAUGAGGAUCACCCAUGUCCUCAUAAGCUCGUCUUAU [JL-sv3-2.16 mat747 mod] (puzzle: Sensor v3, turn-off variant 2)
[3]
  apparent KD of MS2 coat protein: 86.7 nM
[2]
  apparent KD of MS2 coat protein: 19.6 nM
[4]
  apparent KD of MS2 coat protein: 108 nM

## GCAGUAACAUGAGGAUCACCCAUGUGGAACUCGUGAAUAAGCGAGGAUAUCUCAAGAUAUCAAAGAGAGAAGGCGUACACUGCA [Qulege] (Eterna round: R96, puzzle: Exclusion NG 3)
Input ligand: FMN 200 uM
  apparent KD of MS2 coat protein: 490 nM
[1]
  apparent KD of MS2 coat protein: 96.1 nM
Input ligand: none
  apparent KD of MS2 coat protein: 142 nM

## AAGAAACAUGAGGAUCACCCAUGUGAGGAUAUGAGCACGCCGGUGACGGUGAUAAGAAUCAGAAGGCACAAAGG [JL-ex1-4.34 salish99 mod] (Eterna round: R97, puzzle: Exclusion 1)
Input ligand: FMN 200 uM
  apparent KD of MS2 coat protein: 93 nM
Input ligand: none
  apparent KD of MS2 coat protein: 77.8 nM

## UAUAUAUAGUAAGGAUAUGUAUUAAUUGUAUAAACAGAAGGUACUGACAUGAGGAUCACCCAUGUUUUAGUGUGGGCAUGUAGA [JMF's solution 81] (Eterna round: R96, puzzle: Exclusion NG 1)
[1]
  apparent KD of MS2 coat protein: 71.7 nM

## AAGUUGAAAGUCAGGAUAUCCAGACAAAAGUCAACGGAGAAGGGACUUGAGGAUCACCCAAGUGACCCUAAAUG [Usraleribe] (Eterna round: R97, puzzle: Brourd's mod of Exclusion 4)
Input ligand: FMN 200 uM
  apparent KD of MS2 coat protein: 23.9 nM
Input ligand: none
  apparent KD of MS2 coat protein: 14.8 nM

## CCGGAAAGGAAGGAUAUGCUAGACGAGAGUCUAGCAGAAGGUCCUACAUGAGGAUCACCCAUGUGUCCUACCGG [Mat - Exclusion 6 - Eli Mod - D38] (Eterna round: R97, puzzle: Exclusion 6)
Input ligand: FMN 200 uM
  apparent KD of MS2 coat protein: 69.6 nM
Input ligand: none
  apparent KD of MS2 coat protein: 79.8 nM

## GAUUAUGCGAGCUUUAGGGACAUGAGGAUCACCCAUGUUCGUCUUAUUGGUCUGAAUACACUGACAUACCUAAAUCU [JMF 56] (Eterna round: R96, puzzle: Sensor v3, turn-off variant 1)
Input ligand: FMN 200 uM
  apparent KD of MS2 coat protein: 17.1 nM
[1]
  apparent KD of MS2 coat protein: 18.3 nM
Input ligand: none
  apparent KD of MS2 coat protein: 18.7 nM

## AGCUCAAAAGUGAGGAUAUCUAGGGUCAAAUGACCGGAGAAGGCACAUGAGGAUCACCCAUGUAACGCCAUGGA [Ceinveusar] (puzzle: Brourd's mod of Exclusion 4)
[2]
  apparent KD of MS2 coat protein: 12.5 nM

## GACCAAUAGGUAGGAUAUCAUUGCGAUUAGCUAUGAGAAGGACCACAUGAGGAUCACCCAUGUCCUCUAAUUAGCCAAUUGGUA [8th something] (Eterna round: R96, puzzle: Exclusion NG 1)
Input ligand: FMN 200 uM
  apparent KD of MS2 coat protein: 426 nM
[1]
  apparent KD of MS2 coat protein: 170 nM
Input ligand: none
  apparent KD of MS2 coat protein: 90.9 nM

## AUUUAACAUGAGGAUCACCCAUGUGAGGAUAUGUAAAUUUUAAACAAAUAGGAAAUGAACAGAAGGCACACCGG [JR_Exclusion1_Sub006] (puzzle: Exclusion 1)
[3]
  apparent KD of MS2 coat protein: 61.7 nM
[2]
  apparent KD of MS2 coat protein: 41.6 nM
[4]
  apparent KD of MS2 coat protein: 37 nM

## UUUUUAUAUGAAGGAUAUACUUAACAUGAGGAUCACCCAUGUGGUGUUGUGAGUGAGUGAGUUUAGUAGAAGGUCAAUUCUUUA [JMF's solution 83] (Eterna round: R96, puzzle: Exclusion NG 2)
Input ligand: FMN 200 uM
  apparent KD of MS2 coat protein: 866 nM
[1]
  apparent KD of MS2 coat protein: 443 nM
Input ligand: none
  apparent KD of MS2 coat protein: 463 nM

## UGCAGACGAGGAUAUAGAUUUAGAUACAUGAGGAUCACCCAUGUAUACAUGUAUUUAGAUUUAGAAGGCGUCUGCU [E5/14-A3] (Eterna round: R97, puzzle: Exclusion 5)
Input ligand: FMN 200 uM
  apparent KD of MS2 coat protein: 952 nM
Input ligand: none
  apparent KD of MS2 coat protein: 2220 nM

## AGAGUGCUGCGAGGAUAUACAUGAGGAUCACCCAUGUAAAUGUGUGAGGCUUUGCCUCACACAAUGUAGAAGGCGCAGUACUCU [Mat - Exclusion NG 2 - Mod of JL - D1] (Eterna round: R96, puzzle: Exclusion NG 2)
Input ligand: FMN 200 uM
  apparent KD of MS2 coat protein: 17.8 nM
[1]
  apparent KD of MS2 coat protein: 8.58 nM
Input ligand: none
  apparent KD of MS2 coat protein: 15.6 nM

## CACCCUUCAGGAUAUACAUGAGGAUCACCCAUGUGUUCCAGCUAGGAAACUAGCAAAUGUAGAAGGGAAGGGUG [Mat - Exclusion 3 - JL Mod - D5] (Eterna round: R97, puzzle: Exclusion 3)
Input ligand: FMN 200 uM
  apparent KD of MS2 coat protein: 452 nM
Input ligand: none
  apparent KD of MS2 coat protein: 108 nM

## AUGUUGCGAGGAUAUAUAAGGGUAUAUUCAUAAGAUAUGGAACAUGAGGAUCACCCAUGUAGAAGGUGCAUAAC [JR_Ex2_Sub042] (Eterna round: R97, puzzle: Exclusion 2)
Input ligand: FMN 200 uM
  apparent KD of MS2 coat protein: 200 nM
Input ligand: none
  apparent KD of MS2 coat protein: 46.2 nM

## CCAGAAUGUGUCAGGAUAUCGGGUACCAAUAGCUUCGAGAAGGGACAUGAGGAUCACCCAUGUUCUCGGAGAGA [Eternabot (L2) Solution 76] (Eterna round: R97, puzzle: Brourd's mod of Exclusion 4)
Input ligand: FMN 200 uM
  apparent KD of MS2 coat protein: 20.5 nM
Input ligand: none
  apparent KD of MS2 coat protein: 18 nM

## AUGAGGUUAGGAUAUACAUGAGGAUCACCCAUGUUGGAGAAGGAAAUGUAAGUAGCGAGUAGAAGGAACGGAGC [JR_Exclu3_Sub059] (Eterna round: R96, puzzle: Exclusion 3)
Input ligand: FMN 200 uM
  apparent KD of MS2 coat protein: 48.6 nM
[1]
  apparent KD of MS2 coat protein: 40.4 nM
Input ligand: none
  apparent KD of MS2 coat protein: 49 nM

## GUACAUAUAGGAUAUACAUGAGGAUCACCCAUGUAAAUCGUUAGUUGGGAUUCUAAAAGUAGAAGGGUGGUGCG [Eternabot (L2) Solution 30] (Eterna round: R97, puzzle: Exclusion 3)
Input ligand: FMN 200 uM
  apparent KD of MS2 coat protein: 27.6 nM
Input ligand: none
  apparent KD of MS2 coat protein: 27.4 nM

## AAUAACAAGUAAGGUCCUAACAUGAGGAUCACCCAUGUGCUCGUCUUAUAAAGUACUAUCACGAAAGUGAUAGUACA [Sensor 3, v1 - 52] (puzzle: Sensor v3, turn-off variant 1)
[3]
  apparent KD of MS2 coat protein: 52.5 nM
[2]
  apparent KD of MS2 coat protein: 414 nM
[4]
  apparent KD of MS2 coat protein: 52.1 nM

## UAUUAGCAAGCGAGAUCCCACAUGAGGAUCACCCAUGUAAAAGCAUCCAGAAUUACUGGGUGCAAAGCUCGUCUUAU [Winner reversed engineered 7] (Eterna round: R97, puzzle: Sensor, turn-off variant 1)
Input ligand: FMN 200 uM
  apparent KD of MS2 coat protein: 30.1 nM
Input ligand: none
  apparent KD of MS2 coat protein: 24.8 nM

## AAUAACAGAGGAUAUACUAUUUUAUGUAUUUAUUAUUUUGAACAUGAGGAUCACCCAUGUAGAAGGCUGAUUAA [JMF 47] (puzzle: Exclusion 2)
[2]
  apparent KD of MS2 coat protein: 28.7 nM

## UUUUUUGUUGUGAGGAUAUCGUAGUUAUUUUGUUACGAGAAGGCACAUGAGGAUCACCCAUGUUUUUUGAUGUU [JR_BMOE4_Sub064] (puzzle: Brourd's mod of Exclusion 4)
[2]
  apparent KD of MS2 coat protein: 25.4 nM

## GUACCAGAUGUCAGGAUAUGCUUUGAGAGUUGCGAGUAGAAGGGACAUGAGGAUCACCCAUGUACCUACAGGAA [BmEX4 B.30] (Eterna round: R97, puzzle: Brourd's mod of Exclusion 4)
Input ligand: FMN 200 uM
  apparent KD of MS2 coat protein: 14.7 nM
Input ligand: none
  apparent KD of MS2 coat protein: 14 nM

## CCAGCGGACAAAGGAUAUUGCGGUGGCCGGCUCGGCGUACCGAGCCUACAUGAGGAUCACCCAUGUAAGAAGGUUGUCGUAGGA [Mat - Exclusion NG 2 - Mod of JL - D72] (Eterna round: R96, puzzle: Exclusion NG 2)
Input ligand: FMN 200 uM
  apparent KD of MS2 coat protein: 72.2 nM
[1]
  apparent KD of MS2 coat protein: 12.2 nM
Input ligand: none
  apparent KD of MS2 coat protein: 22.7 nM
